Patent US12698507B2, “Methods and compositions for conferring and/or enhancing herbicide tolerance using protoporphyrinogen IX oxidase of various cyanobacteria or variant thereof” (FarmHannong Co., Ltd., priority 2019, dated 2026)
Substitutions are numbered along the chain they refer to. Names may count otherwise.

B1: CyPPO19 V165S + F360L: variant of CyPPO19 PPO protein (SEQ ID NO: 1) (protein)
chain: MSEVDVAIVGGGLSGLSLAWRLQQSAPQYSVVLLEASDRLGGNITTQTAEGFVWELGPNSFAPTPALLQLIAEVGLQSELIRGDRHLPRYIYWRGQLYPLQPTRPLALATSNLLSPWGKVRAALGALGFVPPYLGSGDESVNSFFRRHLGQEVAERLVAPFVSGSYAGDPQQLSAAAAFRRIAQLEKLGGGLIAGALHLRRQQAPKPKPPTSVQMRPGELGSFKEGLAALPRAIAQQLKAPIHLQTPVQEITPDPKGGYLLRSGEQTWRARSVVLATPAYQTAELVAPFQPAIARVLATIPYPTVACVVLAYPAGLGRSVRPGFGVLIPRSQGIRTLGTIWSSCLFPQRTPAGWQVFTSLIGGATDPDLASLSEEAIVQQVQQDLNRLLDLPAAKARLLGMKVWRRAIPQYMVGYPEQWQQVTHALSQTPGLFLCSNYAEGVALGDRVEHGNRTAAAVAAYLSGGQP
modifications: Synthetic_PPO of Thermosynechococcus elongatus PKUAC-SCTE542 (comprising GenBank No. CP032152.1)
B2: CyPPO19 A167I + F360L: variant of CyPPO19 PPO protein (SEQ ID NO: 1) (protein)
chain: B1 chain with S165V, A167I
modifications: Synthetic_PPO of Thermosynechococcus elongatus PKUAC-SCTE542 (comprising GenBank No. CP032152.1)
B3: CyPPO19 A167C + F360M: variant of CyPPO19 PPO protein (SEQ ID NO: 1) (protein)
chain: B1 chain with S165V, A167C, L360M
modifications: Synthetic_PPO of Thermosynechococcus elongatus PKUAC-SCTE542 (comprising GenBank No. CP032152.1)
B4: CyPPO19 A167L + F360M: variant of CyPPO19 PPO protein (SEQ ID NO: 1) (protein)
chain: B1 chain with S165V, A167L, L360M
modifications: Synthetic_PPO of Thermosynechococcus elongatus PKUAC-SCTE542 (comprising GenBank No. CP032152.1)
B5: CyPPO19 A167C + F360V: variant of CyPPO19 PPO protein (SEQ ID NO: 1) (protein)
chain: B1 chain with S165V, A167C, L360V
modifications: Synthetic_PPO of Thermosynechococcus elongatus PKUAC-SCTE542 (comprising GenBank No. CP032152.1)
B6: CyPPO19 V305L + L327T + I408W + F360V: variant of CyPPO19 PPO protein (SEQ ID NO: 1); printed 305L in Table 9 (protein)
chain: B1 chain with S165V, V305L, L327T, L360V, I408W
modifications: Synthetic_PPO of Thermosynechococcus elongatus PKUAC-SCTE542 (comprising GenBank No. CP032152.1)
B7: CyPPO19 A167C + F360L: variant of CyPPO19 PPO protein (SEQ ID NO: 1) (protein)
chain: B1 chain with S165V, A167C
modifications: Synthetic_PPO of Thermosynechococcus elongatus PKUAC-SCTE542 (comprising GenBank No. CP032152.1)
B8: CyPPO19 A167L + F360T: variant of CyPPO19 PPO protein (SEQ ID NO: 1) (protein)
chain: B1 chain with S165V, A167L, L360T
modifications: Synthetic_PPO of Thermosynechococcus elongatus PKUAC-SCTE542 (comprising GenBank No. CP032152.1)
B9: CyPPO19 A167C + F360I: variant of CyPPO19 PPO protein (SEQ ID NO: 1) (protein)
chain: B1 chain with S165V, A167C, L360I
modifications: Synthetic_PPO of Thermosynechococcus elongatus PKUAC-SCTE542 (comprising GenBank No. CP032152.1)
B10: CyPPO19 V165S + F360T: variant of CyPPO19 PPO protein (SEQ ID NO: 1) (protein)
chain: B1 chain with L360T
modifications: Synthetic_PPO of Thermosynechococcus elongatus PKUAC-SCTE542 (comprising GenBank No. CP032152.1)

tested on: PPO-deficient BT3 E. coli (ΔPPO); assay: PPO-inhibiting herbicide tolerance test of PPO variants in E. coli (growth on herbicide-containing LB agar); assay type: cell-based; conditions: CyPPO19 variants in BT3 (ΔPPO) E. coli; LB agar with 0 to 2,000 μM herbicide, 37° C., dark, 16-20 hours
Summary of the method: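 Tolerance was scored against wild-type enzyme: '−' for equal growth, one '+' per 10-fold gain, up to '+++++'. ΔPPO BT3 cells carrying variant plasmids, spotted as a 10-fold dilution series from OD600=0.5, grew 16-20 h at 37° C. in the dark on ampicillin LB agar containing 0 to 2,000 μM herbicide.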

| Molecule | tolerance level relative to wild type, Carfentrazone | tolerance level relative to wild type, Flumioxazin | tolerance level relative to wild type, Fomesafen | tolerance level relative to wild type, Oxyfluorfen | tolerance level relative to wild type, Saflufenacil | tolerance level relative to wild type, Sulfentrazone | tolerance level relative to wild type, Tiafenacil |
| --- | --- | --- | --- | --- | --- | --- | --- |
| B1 | + (‘+’ per each 10-fold resistance) | ++++ (‘+’ per each 10-fold resistance) | ++ (‘+’ per each 10-fold resistance) | ++ (‘+’ per each 10-fold resistance) | ++++ (‘+’ per each 10-fold resistance) | +++ (‘+’ per each 10-fold resistance) | ++++ (‘+’ per each 10-fold resistance) |
| B2 | + (‘+’ per each 10-fold resistance) | +++ (‘+’ per each 10-fold resistance) | + (‘+’ per each 10-fold resistance) | + (‘+’ per each 10-fold resistance) | +++ (‘+’ per each 10-fold resistance) | + (‘+’ per each 10-fold resistance) | +++ (‘+’ per each 10-fold resistance) |
| B3 | + (‘+’ per each 10-fold resistance) | ++++ (‘+’ per each 10-fold resistance) | + (‘+’ per each 10-fold resistance) | ++ (‘+’ per each 10-fold resistance) | ++++ (‘+’ per each 10-fold resistance) | + (‘+’ per each 10-fold resistance) | ++++ (‘+’ per each 10-fold resistance) |
| B4 | + (‘+’ per each 10-fold resistance) | ++++ (‘+’ per each 10-fold resistance) | ++ (‘+’ per each 10-fold resistance) | + (‘+’ per each 10-fold resistance) | ++++ (‘+’ per each 10-fold resistance) | ++ (‘+’ per each 10-fold resistance) | ++++ (‘+’ per each 10-fold resistance) |
| B5 | + (‘+’ per each 10-fold resistance) | +++ (‘+’ per each 10-fold resistance) | + (‘+’ per each 10-fold resistance) | + (‘+’ per each 10-fold resistance) | +++ (‘+’ per each 10-fold resistance) | + (‘+’ per each 10-fold resistance) | ++++ (‘+’ per each 10-fold resistance) |
| B6 | + (‘+’ per each 10-fold resistance) | +++++ (until ‘+++++’ as maximal resistance) | +++ (‘+’ per each 10-fold resistance) | +++ (‘+’ per each 10-fold resistance) | +++++ (until ‘+++++’ as maximal resistance) | +++++ (until ‘+++++’ as maximal resistance) | +++++ (until ‘+++++’ as maximal resistance) |
| B7 | + (‘+’ per each 10-fold resistance) | +++ (‘+’ per each 10-fold resistance) | + (‘+’ per each 10-fold resistance) | + (‘+’ per each 10-fold resistance) | +++ (‘+’ per each 10-fold resistance) | + (‘+’ per each 10-fold resistance) | +++ (‘+’ per each 10-fold resistance) |
| B8 | + (‘+’ per each 10-fold resistance) | +++ (‘+’ per each 10-fold resistance) | + (‘+’ per each 10-fold resistance) | + (‘+’ per each 10-fold resistance) | +++ (‘+’ per each 10-fold resistance) | ++ (‘+’ per each 10-fold resistance) | +++ (‘+’ per each 10-fold resistance) |
| B9 | + (‘+’ per each 10-fold resistance) | ++++ (‘+’ per each 10-fold resistance) | + (‘+’ per each 10-fold resistance) | + (‘+’ per each 10-fold resistance) | +++ (‘+’ per each 10-fold resistance) | ++ (‘+’ per each 10-fold resistance) | ++++ (‘+’ per each 10-fold resistance) |
| B10 | + (‘+’ per each 10-fold resistance) | +++ (‘+’ per each 10-fold resistance) | + (‘+’ per each 10-fold resistance) | + (‘+’ per each 10-fold resistance) | +++ (‘+’ per each 10-fold resistance) | ++ (‘+’ per each 10-fold resistance) | ++++ (‘+’ per each 10-fold resistance) |
